Results taken from the RNAGym collection of RNA variant scans (doi:10.1073/pnas.2313332121).

B1: TPR t1 (parent)
chain: GACCAAUCUGCCCUCAGAGCUCGAGAACAUCUUCGGAUGCAGAGGAGGCAGGCUUCGGUGGCGCGAUAGCGCCAACGUCCUCAACCUCCAAUGCAUCCCACCACAUGAUGAUGCCUGAAGAGCCUUGGUUUUUUG

Variants of: B1
Experiment: polymerase ribozyme fitness, log enrichment relative to wild type (log ratio); higher = more active; in vitro selection for triplet polymerase activity
Outline: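 A single round of triplicate in vitro selection, including frozen incubation at −7 °C, was applied to PCR-built, transcribed mutant libraries of each subunit of a heterodimeric triplet polymerase ribozyme. Illumina sequencing of input and output libraries retained genotypes with ≥10 input reads and ≥1 read per output. Fitness is the base-2 logarithm of genotype enrichment divided by wild-type enrichment, from inverse-variance-weighted replicate averages.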

Row | Variant | polymerase ribozyme fitness (log ratio)
1 | C15G C49G C89U C115G | -4.39
2 | C15A C73U | -2.31
3 | U14G C82U G93C | -2.71
4 | C15G C73U A75G G107U U109A C124G | -5.07
5 | C15A C72G | -2.3
6 | C15G U59C C86U U116G | -4.2
7 | C15U A43C C70A C123U C124A | -4.89
8 | C15A C20U G48A A91U | -4.59
9 | C15G G48U A50G G63C U106A U109C | -6.17
10 | C15G C89U A90G | -2.42
11 | C15U U129C | -1.86
12 | C15U G69A G113C | -5.7
13 | U14G G44A C72U C104U | -2.42
14 | U14A G17A C20G C115U | -5.9
15 | C15G C79G | -4.93
16 | C15G C40A | -3.83
17 | C15G C40U | -2.91
18 | A16C G25U A26G | -4.77
19 | C15U A37G C53U U116C | -2.52
20 | A16C C22U G60C G93C A118U A121G | -6.04
21 | C15U G48U A74C G77C | -2.27
22 | C15A C40U C115U U131A | -1.85
23 | C15G A37G A66U | -5.5
24 | C15A G60C U116C | -3.39

Row | Variant | polymerase ribozyme fitness (log ratio)
25 | C15U A29U C40A A46C C123A | -5.62
26 | A16G A46C G120C | -0.418
27 | C15A U106C | -2.44
28 | C15A U106A | -1.94
29 | C15A U116A | -4.69
30 | C15A C76U A83U C86A | -3.37
31 | U14G A50C C101A | -3.99
32 | C15A A41U A43U G61A G113A G122A | -5.83
33 | C15U U33G G61U U87A U112C | -4.85
34 | C15A A74G U78G C79U G110U | -3.12
35 | C15G C49G U106C C124U | -2.11
36 | C15A A90G G93A A103U G120U | -6.55
37 | C15G A100U | -4.44
38 | C15U A95G | -1.71
39 | U14G G71A | -1.59
40 | U14G C73G C82A | -3.08
41 | U14A G61A | -1.88
42 | U14A G19C A83C C89A A111C C114G | -5.57
43 | U14G G60C C70U | -3.06
44 | C15U G71A C79U | -1.53
45 | C13U U92A | -2.13
46 | A16G A41U G60U C86G C124G | -2.13
47 | C15U C80A | -4.32
48 | U14G A50U G61C C86A | -4.54

Row | Variant | polymerase ribozyme fitness (log ratio)
49 | C13U G51U G52U U78C C82A | -2.57
50 | C13U G44U G58A U59A G61A C62U | -2.38
51 | U14G U55C C70A | -3.8
52 | A16C A37C U112C | -2.37
53 | U14G C53U U87A | -2.67
54 | C15U C104U G117U | -0.366
55 | C15U A18U C34U A41G G48C U106A A111G C124G | -6.92
56 | C15G A26U G44C G117C | -2.36
57 | U14A A111G U130A | -3.57
58 | A16C C56U A84C C85U A100C | -4.89
59 | C15A G52U C94G | -3.9
60 | C13U G45U G117U | -2.03
61 | C15A U54A C56G | -3.37
62 | A16G A50U U81G | -2.01
63 | A16C C72G C82G G120C | -1.82
64 | C15G G17U C40U | -4.85
65 | C15G U132C | -2.23
66 | C15U A41U G48U | -3.71
67 | U14C A46U G60C U116C G117A | -5.66
68 | C15A C49G C98U | -3.16
69 | C15U A43G C124A | 0.00445
70 | C15A C49A C86A A95U G110A C123A | -5.76
71 | C15U C115U | -1.42
72 | C13U U38G G63U C79G C88U C99G G110U G113U | -6.9

Row | Variant | polymerase ribozyme fitness (log ratio)
73 | U14A C82A C98G G110C | -7.59
74 | C15U G52A G93A A95G | -2.44
75 | C15U G17A C40G C64A A90G C94A C104G G120C | -7.98
76 | C13U U131A | -0.274
77 | C15G G77C | -2.39
78 | U14G G45C C94A C123U | -3.17
79 | U14C C40A U87C | -3.01
80 | C13U G71C | -0.732
81 | U14C U116G G120A U129A | -2.37
82 | C15U A46C C70G | -4.3
83 | C15U G36C U54C C85A G117U G127C | -5.33
84 | C15U A50C | -1.84
85 | C15G C22A G52C A119G | -5.02
86 | C13U G128C | -1.81
87 | C15G U55A C70A A83U C97U U130C | -5.79
88 | U14A C123U G127A | -0.509
89 | U14A G48U | -2.9
90 | C13U U30C A46U C73U | -5.98
91 | C13U G44U A50G C53U C56U G93U C124G | -1.13
92 | C15A C70G C99A G117A C124A G128A | -6.67
93 | C15G A27G | -4.15
94 | A16C G48A C73U | -3.7
95 | C15U G71U C101U | -1.24
96 | C15A A24G | -5.73

Row | Variant | polymerase ribozyme fitness (log ratio)
97 | C15U G52U | -2.36
98 | U14A C73A A74C G120A | -0.495
99 | C15A G39A C53A U125A | -3.62
100 | C15G C70G | -3.8
101 | C15G C40G C56A | -3.88
102 | C15U G47U G52C C53A C124G | -1.51
103 | C15A C64G C70A U92C G110C C115U G127U | -7.47
104 | C15U G17C A121C | -2.22
105 | U14C G36C U133A | -4.29
106 | C15U G44U G63C A66U G117U G128A | -6.51
107 | C15A A27C U55G | -5.9
108 | A16C C56A C97G | -5.42
109 | U14G G117A | -2.92
110 | C15G C124U | -0.148
111 | C15A G60U U131A | -1.3
112 | U14G C70G U116G | -5.13
113 | C15A A41C C72A | -2.94
114 | U14G C123U | -0.161
115 | U14G A27C C85A U109A C124A | -6.27
116 | C15A C114U | -4.61
117 | U14A G44C G61U C85G U96C G113U | -6.21
118 | C15U C102U | -3.1
119 | C15U C56U G69U C102A | -5.73
120 | C13U U30G U55G A111U | -4.31

Row | Variant | polymerase ribozyme fitness (log ratio)
121 | C15G A29G C88G U129A | -3.95
122 | C13U G51U C79G G127A | -2.92
123 | U14C G93A G120C | -1.52
124 | C15U A83G U87C | -2.34
125 | C15G C34A C70G A121C | -6.55
126 | C15A G57A C94U | -2.78
127 | C15U A27C C56G C73U C97U | -6.81
128 | U14C C15A A46C | -5.53
129 | C15A A46C | -3.02
130 | C15U C34G C49G G69U G120A | -3.56
131 | U14A G36A | -3.62
132 | U14C C49A C56U U92G C97U A111U | -6.85
133 | C15U G25A | -4.87
134 | C13U G71U U78C | 0.0986
135 | C15U C72A C73A U81A A84G | -4.77
136 | C15G A84U | -2.56
137 | C15A G44U | -2.85
138 | C15A C53A G77A C101G G120A C124A | -1.12
139 | A16G C53G A84C C88A C101G | -4.3
140 | C15U A37G C64U | -1.81
141 | U14A G71C | -3.09
142 | C15U A18U C20U C28G G61U U87G C115U | -5
143 | C15U G58A C85A G113U | -5.84
144 | U14G A50G A84G | -3.03

Row | Variant | polymerase ribozyme fitness (log ratio)
145 | U14A A50G | -2.52
146 | C15U C73U | -1.36
147 | C15A A29U G69A G120C | -1.85
148 | C15U U78G C86U G113C | -5.8
149 | C13U G52C U59C C104U G120U G127A | -1.32
150 | C15A G71U A90U U106C A118U | -4.15
151 | C15G C73A C88G | -3.31
152 | C15A C20U C73A G93A | -3.83
153 | C15U C86U | -1.61
154 | C15A C40A C56G | -6.31
155 | C15U U21C C49G G117A | 0.389
156 | C15U G51A C72G A121C | -2.34
157 | C15U G52A U59A A118U | -2.24
158 | C15A C101G C124G | 0.0121
159 | U14G A43G G52A C53A G77C A100U | -5.52
160 | C15G C62G | -5
161 | U14G U38G | -3.56
162 | C13U G69C U116C G120C | -0.88
163 | U14G G113U | -5.7
164 | U14G G113C | -4.24
165 | C15U C99U G120C G122U | -3.71
166 | C15A G45A C89G G93C | -4.59
167 | C15U A95G C114G | -4.48
